According to patent US20170107294A1, “ANTI-CD14 ANTIBODIES AND USES THEREOF” (Nordlandssykehuset HF, priority 2014, published 2017):

T1: human CD14 (Homo sapiens, UniProt P08571)
T1 construct: endogenous in cells; host or cells: monocytes in fresh human whole blood (lepirudin)
T1 sequence (P08571 20-345): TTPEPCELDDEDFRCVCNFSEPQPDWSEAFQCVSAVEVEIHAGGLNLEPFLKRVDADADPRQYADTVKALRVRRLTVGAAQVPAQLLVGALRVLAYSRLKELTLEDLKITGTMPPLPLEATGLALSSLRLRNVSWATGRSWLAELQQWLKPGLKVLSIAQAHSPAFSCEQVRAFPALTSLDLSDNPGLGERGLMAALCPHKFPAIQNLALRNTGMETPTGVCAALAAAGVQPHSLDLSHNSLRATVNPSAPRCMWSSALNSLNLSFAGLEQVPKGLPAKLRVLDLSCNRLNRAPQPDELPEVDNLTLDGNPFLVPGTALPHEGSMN

B1: OmCI: endotoxin-free recombinant bacterial OmCI (coversin), a 16.8-kDa protein, complement C5 inhibitor (protein, UniProt Q5YD59 19-168, looked up)
Complement inhibitor: DSESDCTGSEPVDAFQAFSEGKEAYVLVRSTDPKARDCLKGEPAGEKQDNTLPVMMTFKNGTDWASTDWTFTLDGAKVTATLGNLTQNREVVYDSQSHHCHVDKVEKEVPDYEMWMLDAGGLEVEVECCRQKLEELASGRNQMYPHLKDC
B2: F(ab)92 fragment of 18D11: F(ab)92 fragment of the murine anti-human CD14 clone 18D11 (Diatec) (antibody, V domains shown)
VH: EVQLVESGGGLMQPKGSLKLSCAASGFTFKTYALNWVRQAPGTGLEWVARIRSKSNNYTTYYADSVKDRFTISRDDSQNMLYLQMNNLKTEDTAMYYCVRPQSGTSFAYWGQGTLVTVSAA
VL: NIVLTQSPASLAVSLGQRATISCRASESVDSYGNSFMHWYQQKPGQPPKLLIYLASNLESGVPARFSGSGSRTDFTLTIDPVEADDVATYYCQQNNGDPYTFGGGTKLEIIR
B3: 18D11: mouse anti-human CD14 IgG1 clone 18D11 (Diatec), original murine clone (antibody, V domains shown)
VH: EVQLVESGGGLMQPKGSLKLSCAASGFTFKTYALNWVRQAPGTGLEWVARIRSKSNNYTTYYADSVKDRFTISRDDSQNMLYLQMNNLKTEDTAMYYCVRPQSGTSFAYWGQGTLVTVSAA
VL: NIVLTQSPASLAVSLGQRATISCRASESVDSYGNSFMHWYQQKPGQPPKLLIYLASNLESGVPARFSGSGSRTDFTLTIDPVEADDVATYYCQQNNGDPYTFGGGTKLEIIR
B4: r18D11: recombinant anti-human CD14 mouse/human chimeric IgG2/4 Ab; VL SEQ ID NO:1, VH SEQ ID NO:2 (antibody, V domains shown)
VH: MGWSCIILFLVATATGVHSEVQLVESGGGLMQPKGSLKLSCAASGFTFKTYALNWVRQAPGTGLEWVARIRSKSNNYTTYYADSVKDRFTISRDDSQNMLYLQMNNLKTEDTAMYYCVRPQSGTSFAYWGQGTLVTVSAA
VL: MGWSCIILFLVATATGVHSNIVLTQSPASLAVSLGQRATISCRASESVDSYGNSFMHWYQQKPGQPPKLLIYLASNLESGVPARFSGSGSRTDFTLTIDPVEADDVATYYCQQNNGDPYTFGGGTKLEIIR
modifications: human IgG2/4 constant regions

Columns and labels:
[1] = test system: complement activation; conditions: pigs; cited from earlier work
[2] = test system: porcine whole blood; test: rMil2 combined with C5 inhibitor OmCI: cytokine production in porcine whole blood ex vivo; format: cell-based; conditions: E. coli-incubated porcine whole blood
Procedure: (§1) The whole blood model has been described in detail previously (36). Fresh human venous or porcine arterial blood was drawn directly into tubes containing the anticoagulant lepirudin (Pharmion) at a final concentration of 50 mg/ml. In 1.8-ml Cryo Tube vials (Nunc, Roskilde, Denmark), the blood was preincubated with up to 20 mg/ml anti-human CD14 (r18D11 or 18D11), or 50 mg/ml anti-porcine CD14 (rMil2 or Mil2) at 37° C. for 10 min prior to an additional 2-h incubation in the presence of 100 ng/ml ultrapure LPS from Escherichia coli 0111:B4 (InvivoGen, San Diego, Calif.) for human blood or 1 3 105/ml heat-inactivated E. coli (strain LE392, ATCC33572) for porcine blood. As negative controls, PBS with MgCl2 and CaCl2 (Sigma-Aldrich) and isotype controls were used. Adverse effects were tested using nonactivated whole blood samples. After the addition of 10 mM (human) or 20 mM (porcine) EDTA, plasma was gained by 15 min centrifugation at 3220 3 g and 4° C. Levels of TNF, IL-6, and IL-1b in human plasma were determined using Bioplex technology (Bio-Rad Laboratories AB). Levels of TNF, IL-1b, and IL-8 in porcine plasma were determined using ELISA (Quantikine, R&D Systems, Minneapolis, Minn.). Platelet count was quantified by impedance using a CELL-DYN Sapphire hematology analyzer (Abbott Laboratories, Abbott Park, Ill.).
Whole blood was incubated with 1 3 106 E. coli per milliliter for 2 h at 37° C. in the absence or presence of inhibitors and controls. TNF, IL-1b, and IL-8 blood was analyzed as described above.

[3] = test system: human whole blood; test: Unwanted effects (complement activation, oxidative burst) in nonstimulated human whole blood; format: cell-based; conditions: 10 mg/ml Ab; for complement activation: not shown; for monocyte oxidative burst: flow cytometry
Procedure: as §1

[4] = test system: human whole blood; test: Whole blood ex vivo model of inflammation, LPS-induced cytokine release in human blood; format: cell-based; parameters: Ab concentration at which maximum inhibitory effects were reached: unit not given here; conditions: for E. coli ultrapure LPS-induced release of IL-1b, TNF and IL-6: 100 ng/ml LPS, dose-dependent; for Ab concentration at which maximum inhibitory effects were reached: LPS-induced IL-1b, TNF, IL-6 release
Procedure: as §1

[5] = target: T1, human CD14; test: CD14 binding in flow cytometry, human whole blood (displacement of 18D11 from monocytes)
Procedure: Fresh human or porcine whole blood was drawn into tubes containing the anticoagulants lepirudin (Refludan; Pharmion, Copenhagen, Denmark) or EDTA, respectively. Blood samples were preincubated for 10 min with Ab, #20 mg/ml anti-human CD14 Abs r18D11, 18D11 F(ab)92 (batch 2068, lot 1383), or isotype controls raNIP and mIgG1 F(ab)92 (lot 1501), or […] anti-porcine CD14 Abs rMil2, Mil2 (lot 1106), or the isotype controls 4770 RECOMBINANT ANTI-CD14 Abs Downloaded from University of Oslo, Library of Medicine and Health Science on Jan. 24, 2014 for IgG2/4 and mIgG2b, eculizumab (Soliris) and mIgG2b (lot 1631), respectively. […] Their binding was detected either by using a secondary PEconjugated anti-mouse IgG or through direct FITC fluorescence. […] In subsequent flow cytometry analyses, human monocyte and porcine granulocyte populations were selected based on the forward scatter-side scatter dot plot, and CD14 binding was recorded as mean or median fluorescence intensity, respectively. […] Fluorescence intensities in the presence of the fluorescently labeled Abs only were set to 100%. Flow cytometry analyses on human samples were performed using an LSRII and FACSDiva software version 5.0.3; porcine samples were analyzed on a FACSCalibur using Cell Quest Pro version 5.2.1 for data acquisition (all from BD Biosciences).

Row | Molecule | inhibition of complement activation [1] | IL-1b release (effect in words) [2] | IL-8 release (effect in words) [2] | TNF release (effect in words) [2] | complement activation [3] | E. coli ultrapure LPS-induced release of IL-1b, TNF and IL-6 [4] | Ab concentration at which maximum inhibitory effects were reached [4] | monocyte oxidative burst [3] | 18D11 displaced from its binding sites on human monocytes ([5]; 10 mg/ml r18D11 vs 10 mg/ml 18D11 (equimolar)) | binding to CD14 on human monocytes (competition with 18D11) ([5]; human whole blood)
1 | B1 | inhibit complement activation effectively | not significantly reduced | significantly reduced to almost baseline | significantly reduced | – | – | – | – | – | –
2 | B2 | – | – | – | – | did not | – | – | – | – | –
3 | B3 | – | – | – | – | same low level of complement activation | inhibited | 10 | significantly induced | – | –
4 | B4 | – | – | – | – | same low level of complement activation | inhibited | 10 | did not induce significant oxidative burst | 50% | dose-dependently outcompeted
